Test results from IntAct's records for PubMed 24446487.

Molecular target: ospg_shifl ospG (UniProt Q99PZ6)
Sequence (Q99PZ6 whole entry): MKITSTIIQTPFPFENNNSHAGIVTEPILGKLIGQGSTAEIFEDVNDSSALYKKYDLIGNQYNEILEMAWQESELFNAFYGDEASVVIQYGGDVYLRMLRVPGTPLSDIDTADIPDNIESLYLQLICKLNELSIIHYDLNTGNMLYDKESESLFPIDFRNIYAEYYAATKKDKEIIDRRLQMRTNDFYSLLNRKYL

Ubiquitin-conjugating enzyme E2 D3 (Homo sapiens), P61077 F62A, sequence (P61077 whole entry F62A): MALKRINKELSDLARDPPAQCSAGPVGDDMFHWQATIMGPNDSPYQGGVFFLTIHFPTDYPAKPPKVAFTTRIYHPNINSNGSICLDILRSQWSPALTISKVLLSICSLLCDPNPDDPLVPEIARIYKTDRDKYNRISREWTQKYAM

Ubiquitin-conjugating enzyme E2 D3 (Homo sapiens), P61077 F62A
effect of a mutation on the interaction: disrupting interaction
